Tests used:
[1] = target: T1, EGFR on NR6 fibroblast cells (Homo sapiens, UniProt P00533); experiment: Competition binding of soluble EGF to EGFR on NR6 fibroblast cells (flow cytometry, Alexa-488 labeled wt EGF); details: competition with Alexa-488 labeled wt EGF, 6 hr at 4° C., read-out: Equilibrium dissociation constants
T1 construct: expressed in transfected cells; host or cells: NR6 fibroblast cells
Description: (§1) Fluorescence intensity of cell surface labeling was measured by flow cytometry.
as §1
This mutant was tested using one of the binding assays described herein in which binding to EGFR expressed on cells is measured. […] Fluorescence intensity of cell surface labeling was measured by flow cytometry.

EGFR = EGFR (Homo sapiens, UniProt P00533); details: Mullenbach et al., Protein Eng 11:473-480, 1998; cited from earlier work

Row | Substance | Kd [1] [nM] | increase in affinity for EGFR over wt EGF (previous data) (EGFR) [fold]
1 | NSYSECPLSYDGYCLNDGVCRYIEALDRYACNCVVGYIGERCQYRDLKWWWLR (Mutant of human epidermal growth factor) [clone 107, second generation EGF mutant from the SOSM library] | 0.13 ± 0.01 | 
2 | G12Q: previously described EGF containing a G12Q mutation (Mullenbach et al.) (NSDSECPLSHDQYCLHDGVCMYIEALDKYACNCVVGYIGERCQYRDLKWWELR) |  | 5

Source: patent US8247531B2, “Mutant epidermal growth factor polypeptides, nucleic acids, and uses therefor” (priority 2006, dated 2012)
